{"source": "paper PMC7265457", "about": "“A disulfide constrains the ToxR periplasmic domain structure, altering its interactions with ToxS and bile-salts” (Scientific Reports, 2020)", "binders": {"B1": {"name": "V. cholerae non-disulfide bonded ToxR periplasmic domain (domain or fragment)", "chain": "TNPSQTSFKPLTVVDGVAVNMPNNHPDLSNWLPSIELCVKKYNEKHTGGLKPIEVIATGGQNNQLTLNYIHSPEVSGENITLRIVANPNDAIKVCE", "notes": "also called Vc-ToxRp"}}, "molecular_target": "T1, V. cholerae ToxS periplasmic domain tagged with an N-terminal chitin binding domain (V. cholerae, UniProt P24003 26-173)", "T1 construct": "also called CBD-ToxSp", "T1 sequence": "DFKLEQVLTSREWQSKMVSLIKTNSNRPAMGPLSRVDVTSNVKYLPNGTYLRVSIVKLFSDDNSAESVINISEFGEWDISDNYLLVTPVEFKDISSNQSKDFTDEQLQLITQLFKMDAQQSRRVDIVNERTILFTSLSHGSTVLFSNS", "assay": "pull-down", "conditions": "both partners purified"}
{"binder": "B1", "values": [{"measurement": "amount pulled down (buffer) relative to Vc-dbToxRp with CDC", "result": 0.22, "unit": "relative level"}]}
